The values below come from patent publication US20200157212A1 (Pfizer, published 2020).

By IC50 is commonly meant the midpoint of a concentration-inhibition curve. High values mean a need for much substance, low ones inhibition by little substance. The Kd is the concentration at which binding is half-saturated. A low value points to a tighter complex.

Assay [1] addresses T1, Terbium (Tb) labeled-SNAP tagged ROBO2 expressed on HEK293 cells (Homo sapiens (Human), UniProt Q9HCK4 22-1378, terbium label on the SNAP tag).
T1 construct: also called Tb-labeled ROBO2 cells; ROBO2 expressing cells; not shown: SNAP tag
T1 sequence: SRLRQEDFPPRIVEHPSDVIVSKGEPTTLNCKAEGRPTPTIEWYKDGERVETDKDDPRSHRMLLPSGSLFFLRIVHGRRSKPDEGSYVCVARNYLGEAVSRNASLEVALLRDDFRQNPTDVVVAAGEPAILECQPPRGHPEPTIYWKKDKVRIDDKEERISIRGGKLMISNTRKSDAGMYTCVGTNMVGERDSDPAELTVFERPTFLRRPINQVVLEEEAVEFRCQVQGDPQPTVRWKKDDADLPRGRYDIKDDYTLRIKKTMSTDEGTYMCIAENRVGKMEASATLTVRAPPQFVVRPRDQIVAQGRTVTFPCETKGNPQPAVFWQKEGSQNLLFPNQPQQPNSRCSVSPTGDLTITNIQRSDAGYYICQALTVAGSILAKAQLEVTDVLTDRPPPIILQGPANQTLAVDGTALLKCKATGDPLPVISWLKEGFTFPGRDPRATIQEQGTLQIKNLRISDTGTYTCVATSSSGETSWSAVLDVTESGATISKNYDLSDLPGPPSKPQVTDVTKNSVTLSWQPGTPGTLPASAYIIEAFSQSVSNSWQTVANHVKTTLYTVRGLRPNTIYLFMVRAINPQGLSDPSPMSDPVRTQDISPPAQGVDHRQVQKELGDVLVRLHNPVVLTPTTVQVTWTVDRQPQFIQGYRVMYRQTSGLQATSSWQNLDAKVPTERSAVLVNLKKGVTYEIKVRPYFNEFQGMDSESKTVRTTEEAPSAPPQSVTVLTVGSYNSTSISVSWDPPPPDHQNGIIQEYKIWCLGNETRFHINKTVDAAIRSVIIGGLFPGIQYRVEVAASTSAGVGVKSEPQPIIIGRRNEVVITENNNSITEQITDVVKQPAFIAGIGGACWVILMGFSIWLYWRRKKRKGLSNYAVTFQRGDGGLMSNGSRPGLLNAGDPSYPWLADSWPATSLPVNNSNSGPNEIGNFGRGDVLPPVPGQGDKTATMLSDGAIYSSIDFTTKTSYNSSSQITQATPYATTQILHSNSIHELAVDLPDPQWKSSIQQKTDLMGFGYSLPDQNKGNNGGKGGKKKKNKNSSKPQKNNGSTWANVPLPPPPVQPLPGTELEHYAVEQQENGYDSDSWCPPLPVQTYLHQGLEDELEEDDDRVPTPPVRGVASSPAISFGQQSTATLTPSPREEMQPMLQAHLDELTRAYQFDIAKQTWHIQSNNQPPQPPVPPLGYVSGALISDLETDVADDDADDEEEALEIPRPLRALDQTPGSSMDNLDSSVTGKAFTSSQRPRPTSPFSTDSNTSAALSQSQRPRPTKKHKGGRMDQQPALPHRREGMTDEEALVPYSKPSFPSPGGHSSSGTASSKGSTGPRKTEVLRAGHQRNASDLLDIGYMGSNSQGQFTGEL
Nature of the assay: HTRF competition, competitor d2-SLIT2-N, ROBO2 HEK293 cells. As to the method:
A ROBO2-SLIT2-N homogenous time resolved fluorescence (HTRF) assay was used to identify antibodies that were capable of blocking SLIT2-N binding to ROBO2. In this assay, terbium (Tb) labeled-SNAP tagged ROBO2 expressing HEK293 cells were incubated with 5 nM d2-labeled SLIT-2N in the presence of 1 nM anti-ROBO2 antibodies for 1 hour. After incubation, fluorescence at 665 nm and 620 nm was measured on an Envision multilabel plate reader. […] Maximal signal was defined as the HTRF ratio of Tb-labeled ROBO2 cells with d2-labeled SLIT2-N in the absence of antibody, the minimum signal was defined as the HTRF ratio of Tb-labeled ROBO2 expressing HEK293 cells only. One nanomolar (nM) parental antibody, 93H2, was unable to block the HTRF assay, therefore this concentration was selected to identify clones with a higher affinity than 93H2 (Table 2, HTRF Ratio column). […] Antibodies derived from chain (Abcs series) or CDR shuffling (CTIR-2 series) were evaluated in 11-point, 5-fold dilution series with a top concentration of 1500 nM (Table 2 HTRF IC₅₀).
Neutralization of SLIT2-N binding to ROBO2 was assessed ROBO2:SLIT2-N homogenous time resolved fluorescence (HTRF) assay as described in Example 2. Briefly the HTRF assay was performed as follows: terbium (Tb) labeled-SNAP tagged ROBO2 expressing HEK293 cells were incubated with d2-labeled SLIT-2N in the presence of anti-ROBO2 antibodies for 1 hour. After incubation, fluorescence at 665 nm and 620 nm was measured on an Envision multi-label plate reader. […] Maximal signal was defined as the HTRF ratio of Tb-labeled ROBO2 cells with d2-labeled SLIT2-N in the absence of antibody, the minimum signal was defined as the HTRF ratio of Tb-labeled ROBO2 expressing HEK293 cells only.

The target in assay [2] is T2, Human ROBO2 Ig1-Ig2-His (human, UniProt Q9HCK4 31-220).
T2 construct: the His tag is named only in the SPR paragraphs; the Octet and ELISA paragraphs print 'ROBO2 Ig1-Ig2' without a tag; also called ROBO2 Ig1-2; Human ROBO2 Ig 1,2
T2 sequence: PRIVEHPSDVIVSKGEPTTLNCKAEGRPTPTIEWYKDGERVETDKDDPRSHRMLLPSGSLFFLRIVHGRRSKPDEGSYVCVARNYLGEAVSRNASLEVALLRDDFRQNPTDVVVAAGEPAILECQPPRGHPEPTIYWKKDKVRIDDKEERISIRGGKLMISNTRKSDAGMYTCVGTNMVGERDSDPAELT
Nature of the assay: SPR, antibody on CM5 chip, ROBO2 Ig1-Ig2-His. As to the method: Based upon several criteria, Abcs25 and Abcs35 were selected for further characterization. Using flow cytometry, improvement in the binding EC₅₀ to human ROBO2 relative to the parental 93H2 was evaluated. Starting at 6.7 nM, 11-point, 3-fold dilution series were made for each antibody and used to stain HEK293 overexpressing human ROBO2 as described above for the ROBO2 fold selectivity (Example 2). […] In addition to measuring improved binding to human ROBO2, it was important to ensure that high affinity binding to both cynomolgus monkey ROBO2 and rat ROBO2 was maintained. Using HEK293 cells overexpressing either cynomolgus monkey ROBO2 or rat ROBO2, the relative dose-dependent binding of 93H2, Abcs25 and Abcs35 was evaluated as described above. High affinity binding to both cynomolgus monkey and rat ROBO2 was maintained in Abcs25 and Abcs35 (Table 4). […] Briefly, Abcs35 was immobilized to 300 resonance units (RU) on a CM5 chip. Association of ROBO2 Ig1-Ig2-His (ROBO2) was measured over 5 minutes and dissociation was followed for a period of 10 minutes.
Affinity was measured by standard SPR methods as described in Example 3. Briefly, antibodies were immobilized to a specific measure of resonance units (RU) on a CM5 chip. Association of ROBO2 Ig1-Ig2-His (ROBO2) and dissociation will be followed for a period of time.
(SPR reads the build-up and loss of mass on a sensor chip optically.)

B1: Abcs35-A (antibody, human IgG1, kappa)
heavy: EVQLVQSGAEVKKPGASVKVSCKASGYTFTGYYMHWVRQAPGQGLEWMGWINPKNGDTEFPQKFQGRVTMTRDTSITTAYMDLSRLRSDDTAVYYCARESGDDAFDIWGQGTMVTVSSASTKGPSVFPLAPSSKSTSGGTAALGCLVKDYFPEPVTVSWNSGALTSGVHTFPAVLQSSGLYSLSSVVTVPSSSLGTQTYICNVNHKPSNTKVDKKVEPKSCDKTHTCPPCPAPEAAGAPSVFLFPPKPKDTLMISRTPEVTCVVVDVSHEDPEVKFNWYVDGVEVHNAKTKPREEQYNSTYRVVSVLTVLHQDWLNGKEYKCKVSNKALPAPIEKTISKAKGQPREPQVYTLPPSREEMTKNQVSLTCLVKGFYPSDIAVEWESNGQPENNYKTTPPVLDSDGSFFLYSKLTVDKSRWQQGNVFSCSVMHEALHNHYTQKSLSLSPGK
light: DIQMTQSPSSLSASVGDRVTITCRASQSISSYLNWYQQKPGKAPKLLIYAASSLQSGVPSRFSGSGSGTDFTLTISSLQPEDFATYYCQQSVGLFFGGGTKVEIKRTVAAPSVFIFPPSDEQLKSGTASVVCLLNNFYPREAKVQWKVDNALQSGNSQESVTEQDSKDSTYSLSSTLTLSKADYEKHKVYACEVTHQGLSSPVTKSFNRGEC
notes: germlined variant of Abcs35; also called Abcs-A
B1 came in with an IC50 in assay [1] of 0.0728 nM. Also, the dissociation constant (Kd) in assay [2] is 0.099 nM.

B2: Abcs35-B (antibody, human IgG1, kappa)
heavy: EVQLVQSGAEVKKPGASVKVSCKASGYTFTGYYMHWVRQAPGQGLEWMGWINPKNGDTEFPQKFQGRVTMTRDTSISTAYMDLSRLRSDDTAVYYCARESGDDAFDIWGQGTMVTVSSASTKGPSVFPLAPSSKSTSGGTAALGCLVKDYFPEPVTVSWNSGALTSGVHTFPAVLQSSGLYSLSSVVTVPSSSLGTQTYICNVNHKPSNTKVDKKVEPKSCDKTHTCPPCPAPEAAGAPSVFLFPPKPKDTLMISRTPEVTCVVVDVSHEDPEVKFNWYVDGVEVHNAKTKPREEQYNSTYRVVSVLTVLHQDWLNGKEYKCKVSNKALPAPIEKTISKAKGQPREPQVYTLPPSREEMTKNQVSLTCLVKGFYPSDIAVEWESNGQPENNYKTTPPVLDSDGSFFLYSKLTVDKSRWQQGNVFSCSVMHEALHNHYTQKSLSLSPGK
light: DIVMTQSPSSLSASVGDRVTITCRASQSISSYLNWYQQKPGKAPKLLIYAASSLQSGVPSRFSGSGSGTDFTLTISSLQPEDFATYYCQQSVGLFFGGGTKVEIKRTVAAPSVFIFPPSDEQLKSGTASVVCLLNNFYPREAKVQWKVDNALQSGNSQESVTEQDSKDSTYSLSSTLTLSKADYEKHKVYACEVTHQGLSSPVTKSFNRGEC
notes: germlined variant of Abcs35
B2 gave a 50% inhibitory concentration (IC50) in assay [1] of 0.0765 nM. This molecule displayed a Kd in assay [2] of 0.123 nM.

B3: Abcs35-D (antibody, human IgG1, kappa)
heavy: EVQLVQSGAEVKKPGASVKVSCKASGYTFTGYYMHWVRQAPGQGLEWMGWINPKNGDTEFPQKFQGRVTMTRDTSISTAYMELSRLRSDDTAVYYCARESGDDAFDIWGQGTMVTVSSASTKGPSVFPLAPSSKSTSGGTAALGCLVKDYFPEPVTVSWNSGALTSGVHTFPAVLQSSGLYSLSSVVTVPSSSLGTQTYICNVNHKPSNTKVDKKVEPKSCDKTHTCPPCPAPEAAGAPSVFLFPPKPKDTLMISRTPEVTCVVVDVSHEDPEVKFNWYVDGVEVHNAKTKPREEQYNSTYRVVSVLTVLHQDWLNGKEYKCKVSNKALPAPIEKTISKAKGQPREPQVYTLPPSREEMTKNQVSLTCLVKGFYPSDIAVEWESNGQPENNYKTTPPVLDSDGSFFLYSKLTVDKSRWQQGNVFSCSVMHEALHNHYTQKSLSLSPGK
light: DIVMTQSPSSLSASVGDRVTITCRASQSISSYLNWYQQKPGKAPKLLIYAASSLQSGVPSRFSGSGSGTDFTLTISSLQPEDFATYYCQQSVGLFFGGGTKVEIKRTVAAPSVFIFPPSDEQLKSGTASVVCLLNNFYPREAKVQWKVDNALQSGNSQESVTEQDSKDSTYSLSSTLTLSKADYEKHKVYACEVTHQGLSSPVTKSFNRGEC
notes: germlined variant of Abcs35
In assay [1], B3 yielded a half-maximal inhibitory concentration (IC50) of 0.0639 nM. In assay [2], this molecule returned a Kd of 0.125 nM.

B4: Abcs35-C (antibody, human IgG1, kappa)
heavy: EVQLVQSGAEVKKPGASVKVSCKASGYTFTGYYMHWVRQAPGQGLEWMGWINPKNGDTEFPQKFQGRVTMTRDTSITTAYMELSRLRSDDTAVYYCARESGDDAFDIWGQGTMVTVSSASTKGPSVFPLAPSSKSTSGGTAALGCLVKDYFPEPVTVSWNSGALTSGVHTFPAVLQSSGLYSLSSVVTVPSSSLGTQTYICNVNHKPSNTKVDKKVEPKSCDKTHTCPPCPAPEAAGAPSVFLFPPKPKDTLMISRTPEVTCVVVDVSHEDPEVKFNWYVDGVEVHNAKTKPREEQYNSTYRVVSVLTVLHQDWLNGKEYKCKVSNKALPAPIEKTISKAKGQPREPQVYTLPPSREEMTKNQVSLTCLVKGFYPSDIAVEWESNGQPENNYKTTPPVLDSDGSFFLYSKLTVDKSRWQQGNVFSCSVMHEALHNHYTQKSLSLSPGK
light: DIVMTQSPSSLSASVGDRVTITCRASQSISSYLNWYQQKPGKAPKLLIYAASSLQSGVPSRFSGSGSGTDFTLTISSLQPEDFATYYCQQSVGLFFGGGTKVEIKRTVAAPSVFIFPPSDEQLKSGTASVVCLLNNFYPREAKVQWKVDNALQSGNSQESVTEQDSKDSTYSLSSTLTLSKADYEKHKVYACEVTHQGLSSPVTKSFNRGEC
notes: germlined variant of Abcs35
In assay [1], B4 had an IC50 of 0.074 nM. The molecule further returned an equilibrium dissociation constant (Kd) in assay [2] of 0.0821 nM.
